The text below walks through data of paper PMC5264503, “Structural and biophysical analysis of nuclease protein antibiotics” (Biochemical Journal, 2016).

In assay [1] the target is wild-type ColE9 (colicin E9) (E. coli) (UniProt P09883). As to the kind of experiment: stopped-flow fluorescence; wild-type ColE9 under the same conditions (PBS pH 7.4, 25 °C); data not shown.
The target of the next assay is pyocin S2 (P. aeruginosa, UniProt Q06584 1-689). Put plainly: SAXS. Particulars: both partners purified.
pyocin S2, sequence (Q06584 whole entry): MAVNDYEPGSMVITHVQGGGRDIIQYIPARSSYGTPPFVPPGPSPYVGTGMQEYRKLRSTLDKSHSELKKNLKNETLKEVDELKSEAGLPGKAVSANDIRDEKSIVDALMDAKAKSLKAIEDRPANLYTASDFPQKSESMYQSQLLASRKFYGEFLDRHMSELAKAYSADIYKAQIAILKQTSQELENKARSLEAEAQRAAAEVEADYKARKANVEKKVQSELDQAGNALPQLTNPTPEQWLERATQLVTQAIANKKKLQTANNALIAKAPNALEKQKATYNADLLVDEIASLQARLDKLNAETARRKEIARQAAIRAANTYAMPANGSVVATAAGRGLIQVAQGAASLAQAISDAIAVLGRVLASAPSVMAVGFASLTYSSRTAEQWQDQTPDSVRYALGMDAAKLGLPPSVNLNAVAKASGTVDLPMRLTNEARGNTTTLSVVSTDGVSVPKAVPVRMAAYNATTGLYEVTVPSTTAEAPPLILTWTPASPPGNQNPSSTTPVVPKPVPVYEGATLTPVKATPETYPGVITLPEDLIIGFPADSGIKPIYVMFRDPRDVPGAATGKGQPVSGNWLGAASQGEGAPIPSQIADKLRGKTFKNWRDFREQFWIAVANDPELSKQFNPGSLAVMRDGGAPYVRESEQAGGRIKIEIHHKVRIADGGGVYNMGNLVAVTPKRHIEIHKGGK

wild-type ColE9 (colicin E9) (E. coli), sequence (P09883 whole entry): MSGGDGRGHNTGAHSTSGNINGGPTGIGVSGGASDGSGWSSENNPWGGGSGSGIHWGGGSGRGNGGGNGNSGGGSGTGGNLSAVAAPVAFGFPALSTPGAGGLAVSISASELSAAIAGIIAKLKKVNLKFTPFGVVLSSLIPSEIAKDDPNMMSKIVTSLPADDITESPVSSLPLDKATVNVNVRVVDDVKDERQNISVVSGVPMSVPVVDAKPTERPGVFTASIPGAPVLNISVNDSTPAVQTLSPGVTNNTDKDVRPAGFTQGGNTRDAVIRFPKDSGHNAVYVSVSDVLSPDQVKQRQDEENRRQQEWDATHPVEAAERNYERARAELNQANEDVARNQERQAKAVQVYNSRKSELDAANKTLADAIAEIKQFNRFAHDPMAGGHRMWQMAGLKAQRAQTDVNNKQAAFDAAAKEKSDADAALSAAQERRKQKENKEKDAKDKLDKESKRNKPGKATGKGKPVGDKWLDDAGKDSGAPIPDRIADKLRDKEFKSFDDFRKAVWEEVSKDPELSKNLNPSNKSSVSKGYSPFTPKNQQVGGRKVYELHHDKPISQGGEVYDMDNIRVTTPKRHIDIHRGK

As for “Im9 (immunity protein 9) (from UniProt P13479 1-86) (natural protein)”, in assay [1], the k1 (bimolecular collision) turned out to be 1.28e+08 M⁻¹ s⁻¹ and the k2 app (conformational change) was found to be 2.76 s⁻¹.

B1: ImS2 (pyocin S2 immunity protein) (natural protein)
chain: MKSKISEYTEKEFLEFVKDIYTNNKKKFPTEESHIQAVLEFKKLTEHPSGSDLLYYPNENREDSPAGVVKEVKEWRASKGLPGFKAG
notes: not shown: His6, C-terminal, kept
For B1, in the assay with pyocin S2, the binding result is “binds”.
